Substitutions are numbered along the chain they refer to. Where two headings read alike, the source gives them in different places.

One may read the EC50 (read off the curve) as the concentration giving half of the maximal effect.

For test [1], the target named is T1, human CEACAM5-his (ACRO CE5-H5226) (human, UniProt P06731 35-685).
T1 construct: Bought protein; not shown: His tag
T1 sequence (looked up): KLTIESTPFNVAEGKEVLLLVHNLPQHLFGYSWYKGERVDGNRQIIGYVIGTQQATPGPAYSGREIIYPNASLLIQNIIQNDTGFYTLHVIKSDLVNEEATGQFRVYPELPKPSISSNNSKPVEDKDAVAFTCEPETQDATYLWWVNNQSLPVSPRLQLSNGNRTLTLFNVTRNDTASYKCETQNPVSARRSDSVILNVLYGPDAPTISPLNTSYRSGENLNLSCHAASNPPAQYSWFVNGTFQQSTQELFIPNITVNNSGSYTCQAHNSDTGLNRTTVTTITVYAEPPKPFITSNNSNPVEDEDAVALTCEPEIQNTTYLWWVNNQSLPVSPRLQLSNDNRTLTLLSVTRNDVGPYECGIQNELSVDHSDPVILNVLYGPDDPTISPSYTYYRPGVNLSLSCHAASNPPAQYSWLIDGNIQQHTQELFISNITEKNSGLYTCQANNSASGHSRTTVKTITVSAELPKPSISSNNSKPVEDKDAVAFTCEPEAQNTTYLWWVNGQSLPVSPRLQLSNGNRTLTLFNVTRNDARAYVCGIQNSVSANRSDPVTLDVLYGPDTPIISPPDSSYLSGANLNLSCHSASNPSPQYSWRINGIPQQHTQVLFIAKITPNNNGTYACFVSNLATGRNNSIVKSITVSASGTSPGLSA
The test is described as follows: ELISA on coated human CEACAM5, OD450. Here is the method: (§1) The binding activity of the antibodies to human CEACAM5, human CEACAM6, and human CEACAM6 (AB) proteins was detected by ELISA. The plate coated with proteins was incubated at 4° C. overnight, and the 96-well ELISA plate blocked with 2% PBS-BSA was added with the antibody to be detected and incubated at 37° C. for 1 h. After washing 3 times with PBS containing 0.05% Tween, the absorbance value of each well was read at wavelength 450 nm with the gradient-diluted mouse-derived candidate antibody as the primary antibody and anti-mouse-IgG-FC-HRP as the secondary antibody, and the absorbance value of each well was read at wavelength 450 nm after the TMB color development.

The target in another test is T2, mouse CEACAM5 (mouse, UniProt Q3UKK2 35-947, limits assumed).
T2 sequence (looked up): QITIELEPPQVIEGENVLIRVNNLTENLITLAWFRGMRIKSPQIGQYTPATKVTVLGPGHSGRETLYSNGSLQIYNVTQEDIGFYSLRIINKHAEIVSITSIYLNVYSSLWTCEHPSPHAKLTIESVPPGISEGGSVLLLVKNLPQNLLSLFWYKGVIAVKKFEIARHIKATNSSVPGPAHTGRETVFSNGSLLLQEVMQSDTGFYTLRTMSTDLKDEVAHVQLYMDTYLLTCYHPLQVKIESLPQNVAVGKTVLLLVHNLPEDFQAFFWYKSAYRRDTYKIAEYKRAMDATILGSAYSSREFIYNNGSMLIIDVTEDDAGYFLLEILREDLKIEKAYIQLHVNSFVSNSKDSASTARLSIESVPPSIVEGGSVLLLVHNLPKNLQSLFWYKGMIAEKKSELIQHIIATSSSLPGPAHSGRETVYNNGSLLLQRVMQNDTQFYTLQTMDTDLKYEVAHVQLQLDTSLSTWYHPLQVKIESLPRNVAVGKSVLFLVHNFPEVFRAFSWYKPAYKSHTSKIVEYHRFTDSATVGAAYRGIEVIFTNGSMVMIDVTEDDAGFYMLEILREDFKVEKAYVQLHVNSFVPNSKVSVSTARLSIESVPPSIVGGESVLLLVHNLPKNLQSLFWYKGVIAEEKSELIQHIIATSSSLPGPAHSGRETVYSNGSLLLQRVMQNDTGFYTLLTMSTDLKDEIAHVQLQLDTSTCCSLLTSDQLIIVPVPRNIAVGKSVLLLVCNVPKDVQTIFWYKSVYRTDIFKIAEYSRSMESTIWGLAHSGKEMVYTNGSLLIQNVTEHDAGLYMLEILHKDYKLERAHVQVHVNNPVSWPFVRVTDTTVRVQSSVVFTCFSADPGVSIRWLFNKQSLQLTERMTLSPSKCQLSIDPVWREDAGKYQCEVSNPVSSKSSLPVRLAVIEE
Nature of the test: ELISA on coated protein, OD450. Here is the method:
The affinity of the antibodies to monkey CEACAM5, monkey CEACAM6, and mouse CEACAM5 proteins was determined by ELISA. The plates encapsulated with […] proteins were incubated at 4° C. overnight, and the antibodies to be detected were added to 96-well ELISA plates after being blocked with 2% PBS-BSA and incubated at 37° C. for 1 h. After washing 3 times with PBS containing 0.05% Tween, the absorbance value of each well was read at wavelength 450 nm with the antibody to be detected as the primary antibody and Goat anti-mouse IgG-FC-HRP as the secondary antibody, and the absorbance value of each well was read at wavelength 450 nm after the TMB color development. The specific binding to CEACAM5 and CEACAM6 of mouse and monkey was detected by Elisa method.

For test [2], the target named is T3, CEACAM6 on the surface of the tumor cells (HPAFII cells) (UniProt P40199 35-320).
T3 construct: whole, on cells
T3 sequence (looked up): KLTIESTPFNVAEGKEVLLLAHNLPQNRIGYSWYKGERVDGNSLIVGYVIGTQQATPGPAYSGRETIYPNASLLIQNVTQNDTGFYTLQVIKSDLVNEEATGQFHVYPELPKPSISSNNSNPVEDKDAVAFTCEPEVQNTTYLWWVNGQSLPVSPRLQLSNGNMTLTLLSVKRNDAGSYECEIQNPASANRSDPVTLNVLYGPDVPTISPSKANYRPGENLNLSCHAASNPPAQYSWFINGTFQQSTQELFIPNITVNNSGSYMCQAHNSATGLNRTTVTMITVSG
Nature of the test: flow cytometry on HPAFII cells (Mean-FITC); the cells carry CEACAM5 and CEACAM6, signal not divided between the two. The procedure:
(§2) The antibody to be tested was taken as the initial concentration of 200 nM and diluted 5-fold with 6 gradients. The HPAFII cells (From USTC […] FOR ADVANCED STUDIES) in the incubator were taken out, and the cell suspension was transferred to a 15 mL centrifuge tube, centrifuged, and counted by resuspension in PBS. A blank control group (Blank), a negative control group (NC), an experimental group, a positive control group and the irrelevant antibody group were kept. […] The cell suspension was spread in a 96-well plate according to about 3×10⁵ cells/well. Centrifugation (1000 rpm, 5 min) was performed, followed by washing with PBS, re-centrifugation, and repeated twice to remove media residues. The supernatant was discarded, 100 μL of primary antibody solution and irrelevant antibody solution were added to the experimental group and irrelevant antibody group, respectively, and the cells were resuspended and incubated at room temperature for 1 h. The blank group, and the negative control group were incubated with an equal amount of PBS.
(§3) After 1 h, PBS was added to wash twice. After the supernatant was discarded, 100 μL of fluorescent secondary antibody dilution (Mouse-derived secondary antibody from Abcam ab6785) was added to each sample group, except for the blank group which was added with 100 μL of PBS. After incubation at room temperature and protected from light for 0.5 h, centrifugation was performed and PBS added to wash the samples twice. After the supernatant was discarded, 120 μL of PBS was added to resuspend and sequentially flow cytometry was performed to detect the mean fluorescence intensity. The concentration of the antibody was logarithmically taken as the horizontal coordinate, and the Sigmoidaldose-response (VariableSlope) method (GraphPadPrism Software, GraphPadSoftware, San Diego, California) was chosen to perform a nonlinear regression to obtain the binding activity curves of the antibody on HPAFII cells.

Test [3] deals with T4, CEACAM5 on the surface of the tumor cells (HPAFII cells) (UniProt P06731 35-685).
T4 construct: whole, on cells
T4 sequence (looked up): T1 sequence (looked up)
The test is described as above. The procedure:
as §2, §3

The next test has as its target T5, Human-CEACAM6 (AB)-His (human, UniProt P40199 145-314).
T5 construct: Made in house, purified on a nickel column
The test is described as follows: ELISA on coated human CEACAM6 (AB), OD450. Here is the method: as §1
A general note: In an ELISA, binding on a coated surface is turned into a signal by an enzyme label.

Test [4] deals with T1, human CEACAM5-his (ACRO CE5-H5226). The test is described as follows: ELISA on coated human CEACAM5, OD450. Here is the method: as §1
The source holds these as a separate data set.

Test [5] addresses T3, CEACAM6 on the surface of the tumor …. The test is described as follows: flow cytometry on HPAFII cells (Mean PE); the cells carry CEACAM5 and CEACAM6, signal not divided between the two. The procedure:
Centrifugation (1000 rpm, 5 min) was performed, followed by washing with PBS, re-centrifugation, and repeated twice to remove media residues. The supernatant was discarded, 100 μL of primary antibody solution and irrelevant antibody solution were added to the experimental group and irrelevant antibody group, respectively, and the cells were resuspended and incubated at room temperature for 1 h. The blank group, and the negative control group were incubated with an equal amount of PBS.
as §3, with “(Secondary” for “(Mouse-derived secondary”, “ab98596)” for “ab6785)”

T5 sequence (P40199 other isoform, or with tags, fused parts or gaps limits assumed): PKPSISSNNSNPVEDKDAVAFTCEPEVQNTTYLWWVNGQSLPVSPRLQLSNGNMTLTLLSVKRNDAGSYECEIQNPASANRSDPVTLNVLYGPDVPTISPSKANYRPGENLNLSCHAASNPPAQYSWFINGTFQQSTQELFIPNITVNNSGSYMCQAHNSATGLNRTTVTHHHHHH

B1: Antibody 2 (antibody, V domains shown)
VH: EVKLVESGGGLVQPGGSLRLSCATSEFTLIDYYMSWVRQSPGKALEWLGYIRNKVNGHTTDYIASVKGRFAISRDNSQSILYLQMNTLRVEDSATYYCVRDPGINWYFDVWGAGTTVTVSS
VL: QIVLSQSPAILSASPGEKVTMTCRASSRVTYMHWYQQKPGSSPKPWISATSNLASGVPARFSGSGSGTSYSLTISRVEAEDAATYYCQQWSYNPPTFGAGTKLELN
notes: Mouse-derived hybridoma antibody; also called mouse-derived antibody 2
Consider B1, for which the “EC50 (read off the curve)” value in test [1] was about 0.02 µg/mL; in test [2] it was about 3 nM; in test [3], about 3 nM. Also, the OD with mouse CEACAM5 came to 0.15 OD.

B2: Antibody 12 (antibody, V domains shown)
VH: EVKLVESGGGLVQPGGSLSLSCAVSGFIFTDYFMSWVRQPPGKTLEWLALIRNKANGYIIEYSESVKGRFTISRGNSQSIFYLQMNALRTEDSATYYCARDIGIRWNFDVWGAGTTVTVSS
VL: QIVLTQSPAIMSASPGEKVTMTCSATSRVTYMHWYQQKSGTSPKRWIYATSTLASGVPARFSGSGSGTSYSLTISSMEAEDAATYYCQQWSYNPPTFGSGTKLEIK
notes: Mouse-derived hybridoma antibody; also called mouse-derived antibody 12
Turning to B2, the “EC50 (read off the curve)” value with Human-CEACAM6 (AB)-His was about 0.009 µg/mL; in test [4] it was about 0.02 µg/mL.

B3: Antibody 3 (antibody, V domains shown)
VH: EVQMVESGGGLVKPGGSLKLSCAASGFTFSDYYMYWVRQSPEKRLEWVATISDAGTYTSYLDSVKGRFIISRDNAKNNLYLQMSSLKSEDTAIYYCARNYYGSSPYGMDYWGQGTSVTVSS
VL: B2 VL with T26S, R28S, T30I, A49D, T52K, Y92S, N93H, P95L, S99A, I105L
notes: Mouse-derived hybridoma antibody; also called mouse-derived antibody 3
With B3, the results for the “EC50 (read off the curve)” value in test [1], in test [2] and in test [3] were about 0.02 µg/mL, about 1 nM and about 1 nM, respectively.

B4: Antibody 4 (antibody, V domains shown)
VH: QIQLVQSGPELKKPGETVKISCKASGYTFTDYSLHWVKQVPVKGLKWMGWINTETGEPTYADDFKGRFAFSLDTSASSAYLQIHNLKNEDTATYFCASPVSLLFYYFTVWGAGTTVTVSA
VL: DIQMTQTTSSLSASLGDRVTISCRASQDISHFLNWYQQKPDGTVELLIYYTSRLLSGVPSRFSGSGSGTDYSLTIANLEQEDIATYFCQQGKTLPWTFGGGTKVEIK
notes: Mouse-derived hybridoma antibody; also called mouse-derived antibody 4
As to B4, the “EC50 (read off the curve)” value in test [1] is about 0.02 µg/mL; in test [2], about 2 nM; in test [3], about 2 nM.

B5: Antibody 5 (antibody, V domains shown)
VH: QIQLVQSGPELMKPGETVKISCKASGYTFTNYGMNWVKQAPGKGLKWLGWINTYTGKPTYADDIKERFVFSLETSASTAYLQINNLKNEDTATYFCARRDYRGWYFDVWGAGTPVTVSS
VL: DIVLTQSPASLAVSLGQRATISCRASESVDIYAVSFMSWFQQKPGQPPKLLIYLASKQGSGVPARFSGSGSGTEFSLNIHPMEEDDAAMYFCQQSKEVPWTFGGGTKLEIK
notes: Mouse-derived hybridoma antibody; also called mouse-derived antibody 5
B5: the “EC50 (read off the curve)” value with Human-CEACAM6 (AB)-His was about 0.04 µg/mL. Further, the binding result in test [1] was “binds”.

B6: Antibody E (antibody, human IgG1, kappa, V domains shown)
VH: EVQLVESGGGLVQPGGSLRLSCATSEFTLIDYYMSWVRQAPGKALEWVGYIRNKVNGHTTDYIASVKGRFTISRDDSKNSLYLQMNSLKTEDTAVYYCVRDPGINWYFDVWGQGTLVTVSS
VL: EIVLTQSPATLSLSPGERATLSCRASSRVTYMHWYQQKPGQSPRPLISATSNLASGIPARFSGSGSGTDYTLTISSLEPEDFAVYYCQQWSYNPPTFGGGTKLELKR
notes: humanized from mouse-derived antibody 2; also called humanized antibody E
Take B6: the binding result in test [5] is on record as “binds”.

B7: Antibody F (antibody, human IgG1, kappa, V domains shown)
VH: B6 VH
VL: B6 VL with E1Q, Q41S, R44K, V84T
notes: humanized from mouse-derived antibody 2; also called humanized antibody F
As for B7, the binding result in test [5] is “binds”.

The values above are taken from US20250250335A1 (SHENGHE CHINA BIOPHARMACEUTICAL, published 2025).
